Measurements published in CN110872351A.

Molecular target: GPC3蛋白 (glypican-3 protein expressed in eukaryotic HEK293 cells) (UniProt P51654)
Experiment: sandwich ELISA: coated GPC3 polyclonal antibody, GPC3 protein at varied concentration, GN1-Luc fixed at 0.2 μg/mL, luminescence; the value is a GPC3 concentration

Chain of UniProt P51654 (P51654 25-559 limits assumed): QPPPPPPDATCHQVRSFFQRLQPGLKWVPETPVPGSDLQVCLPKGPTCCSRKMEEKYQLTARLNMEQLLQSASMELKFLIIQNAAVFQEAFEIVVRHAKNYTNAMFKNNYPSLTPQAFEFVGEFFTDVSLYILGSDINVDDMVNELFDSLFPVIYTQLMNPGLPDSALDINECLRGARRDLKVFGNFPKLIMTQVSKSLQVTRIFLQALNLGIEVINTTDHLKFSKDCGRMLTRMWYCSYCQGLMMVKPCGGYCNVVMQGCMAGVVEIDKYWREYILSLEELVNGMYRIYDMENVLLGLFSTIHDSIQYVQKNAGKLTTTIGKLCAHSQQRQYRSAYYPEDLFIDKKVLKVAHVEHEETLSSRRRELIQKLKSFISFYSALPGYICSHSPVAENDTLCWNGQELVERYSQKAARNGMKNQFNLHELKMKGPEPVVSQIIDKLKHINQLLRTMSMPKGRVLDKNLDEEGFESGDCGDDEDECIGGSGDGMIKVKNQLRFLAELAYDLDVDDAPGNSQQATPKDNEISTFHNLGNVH

B1: 融合蛋白GN1-Luc (fusion of nanobody GN1 and Nano-luciferase) (protein, part only; not given: junction residues and His tag, part only)
chain, part: QVQLVESGGGLVQAGGSLRLSCAASGRTFVGSTMGWFRQAPGKEREFVARMSWLGRSTYYADSVKGRFTISRDNAKNTVYLQMNSLKPEDTAVYYCALALGYIDLARPDAVDAWGQGTLVTVSS
EC20: 0.0519 µg/mL
EC80: 0.157 µg/mL
